Assays:
Gls = test: interactome comparison (volcano plot); conditions: CPEB3 and S240-242A expressed in mouse neuroblastoma N2A cells; read off a plot
Wdr77 = test: interactome comparison (volcano plot); conditions: CPEB3 and S240-242A expressed in mouse neuroblastoma N2A cells; read off a plot

“CPEB3 (full-length), expressed in mouse neuroblastoma N2A cells (from UniProt Q7TN99) S240A; S241A; S242A” showed an other: Log2(Fold Change (Mut/FL)) (Gls) of 2.8 and an other: Log2(Fold Change (Mut/FL)) (Wdr77) of -4.2.

Source: publication PMC9964033
